Laboratory results from the supplement of paper PMC5998384.

How the values were obtained:
HeLa Kyoto [1] = assay: solubility change mitosis vs G1/S (difference of NP-40 vs SDS log2 ratios) (log2 ratio difference); higher = more soluble in mitosis
HeLa Kyoto [2] = assay: thermal stability score vs G1/S (z-score of summed log2 fold changes over temperatures); higher = more thermally stable than in G1/S
HeLa Kyoto [3] = assay: solubility in G1/S (NP-40 vs SDS abundance) (log2 ratio); higher = more soluble; settings: cell cycle stage: G1/S
HeLa Kyoto [4] = assay: melting temperature (median over replicates), in situ; higher = more thermally stable
[5] = cell cycle stage: early G1 (4.5 h after nocodazole release)
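Wherever melting temperature (median over replicates), in situ is given: HeLa Kyoto cells synchronized by double thymidine or nocodazole block, proteins quantified by TMT10plex mass spectrometry, three independent biological replicates.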
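Wherever solubility change mitosis vs G1/S (difference of NP-40 vs SDS log2 ratios) is given: synchronized HeLa Kyoto cells (double thymidine block for G1/S, nocodazole release for mitosis), protein amounts in NP-40 versus SDS lysates quantified by mass spectrometry, three biological replicates.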
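Wherever solubility in G1/S (NP-40 vs SDS abundance) is given: HeLa Kyoto cells arrested at G1/S by double thymidine block, proteins quantified by TMT10plex mass spectrometry in mild NP-40 versus SDS extracts, three biological replicates.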
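Wherever thermal stability score vs G1/S (z-score of summed log2 fold changes over temperatures) is given: synchronized HeLa Kyoto cells, proteins quantified by TMT10plex mass spectrometry, three biological replicates, mitosis taken 0.5 h after nocodazole release, G1/S directly after double thymidine block.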

Sequence | solubility change mitosis (log2) (HeLa Kyoto [1]) | thermal stability score (HeLa Kyoto [2]; [5]) | thermal stability score (HeLa Kyoto [2]; cell cycle stage: mitosis) | solubility in G1/S (log2) (HeLa Kyoto [3]) | melting temperature (HeLa Kyoto [4]; cell cycle stage: G1/S) [°C] | melting temperature (HeLa Kyoto [4]; cell cycle stage: mitosis) [°C]
MAQLGAVVAVASSFFCASLFSAVHKIEEGHIGVYYRGGALLTSTSGPGFHLMLPFITSYKSVQTTLQTDEVKNVPCGTSGGVMIYFDRIEVVNFLVPNAVYDIVKNYTADYDKALIFNKIHHELNQFCSVHTLQEVYIELFDQIDENLKLALQQDLTSMAPGLVIQAVRVTKPNIPEAIRRNYELMESEKTKLLIAAQKQKVVEKEAETERKKALIEAEKVAQVAEITYGQKVMEKETEKKISEIEDAAFLAREKAKADAECYTAMKIAEANKLKLTPEYLQLMKYKAIASNSKIYFGKDIPNMFMDSAGSVSKQFEGLADKLSFGLEDEPLETATKEN [ERLIN2] | -0.0221 | 2.26 | 1.92 | 0.0653 | 52.7 | 53.2
MAQRGGARRPRGDRERLGSRLRALRPGREPRQSEPPAQRGPPPSGRPPARSTASGHDRPTRGAAAGARRPRMKKKTRRRSTRSEELTRSEELTLSEEATWSEEATQSEEATQGEEMNRSQEVTRDEESTRSEEVTREEMAAAGLTVTVTHSNEKHDLHVTSQQGSSEPVVQDLAQVVEEVIGVPQSFQKLIFKGKSLKEMETPLSALGIQDGCRVMLIGKKNSPQEEVELKKLKHLEKSVEKIADQLEELNKELTGIQQGFLPKDLQAEALCKLDRRVKATIEQFMKILEEIDTLILPENFKDSRLKRKGLVKKVQAFLAECDTVEQNICQETERLQSTNFALAE [BAG1] | 0.0327 | 0.492 | -2.14 | 0.0346 | 54.3 | 53.7
MAQRHSDSSLEEKLLGHRFHSELRLDAGGNPASGLPMVRGSPRVRDDAAFQPQVPAPPQPRPPGHEEPWPIVLSTESPAALKLGTQQLIPKSLAVASKAKTPARHQSFGAAVLSREAARRDPKLLPAPSFSLDDMDVDKDPGGMLRRNLRNQSYRAAMKGLGKPGGQGDAIQLSPKLQALAEEPSQPHTRSPAKNKKTLGRKRGHKGSFKDDPQLYQEIQERGLNTSQESDDDILDESSSPEGTQKVDATIVVKSYRPAQVTWSQLPEVVELGILDQLSTEERKRQEAMFEILTSEFSYQHSLSILVEEFLQSKELRATVTQMEHHHLFSNILDVLGASQRFFEDLEQRHKAQVLVEDISDILEEHAEKHFHPYIAYCSNEVYQQRTLQKLISSNAAFREALREIERRPACGGLPMLSFLILPMQRVTRLPLLMDTLCLKTQGHSERYKAASRALKAISKLVRQCNEGAHRMERMEQMYTLHTQLDFSKVKSLPLISASRWLLKRGELFLVEETGLFRKIASRPTCYLFLFNDVLVVTKKKSEESYMVQDYAQMNHIQVEKIEPSELPLPGGGNRSSSVPHPFQVTLLRNSEGRQEQLLLSSDSASDRARWIVALTHSERQWQGLSSKGDLPQVEITKAFFAKQADEVTLQQADVVLVLQQEDGWLYGERLRDGETGWFPEDFARFITSRVAVEGNVRRMERLRVETDV [ARHGEF16] | -0.0697 | 0.0138 | 0.41 | -0.0605 | 49.4 | 49.5
MAQRMTTQLLLLLVWVAVVGEAQTRIAWARTELLNVCMNAKHHKEKPGPEDKLHEQCRPWRKNACCSTNTSQEAHKDVSYLYRFNWNHCGEMAPACKRHFIQDTCLYECSPNLGPWIQQVDQSWRKERVLNVPLCKEDCEQWWEDCRTSYTCKSNWHKGWNWTSGFNKCAVGAACQPFHFYFPTPTVLCNEIWTHSYKVSNYSRGSGRCIQMWFDPAQGNPNEEVARFYAAAMSGAGPWAAWPFLLSLALMLLWLLS [FOLR1] | 0.0281 | -1.06 | -1.43 | -0.325 | 58.8 | 
MAQSLRLHFAARRSNTYPLSETSGDDLDSHVHMCFKRPTRISTSNVVQMKLTPRQTALAPLIKENVQSQERSSVPSSENVNKKSSCLQISLQPTRYSGYLQSSNVLADSDDASFTCILKDGIYSSAVVDNELNAVNDGHLVSSPAICSGSLSNFSTSDNGSYSSNGSDFGSCASITSGGSYTNSVISDSSSYTFPPSDDTFLGGNLPSDSTSNRSVPNRNTTPCEIFSRSTSTDPFVQDDLEHGLEIMKLPVSRNTKIPLKRYSSLVIFPRSPSTTRPTSPTSLCTLLSKGSYQTSHQFIISPSEIAHNEDGTSAKGFLSTAVNGLRLSKTICTPGEVRDIRPLHRKGSLQKKIVLSNNTPRQTVCEKSSEGYSCVSVHFTQRKAATLDCETTNGDCKPEMSEIKLNSDSEYIKLMHRTSACLPSSQNVDCQININGELERPHSQMNKNHGILRRSISLGGAYPNISCLSSLKHNCSKGGPSQLLIKFASGNEGKVDNLSRDSNRDCTNELSNSCKTRDDFLGQVDVPLYPLPTENPRLERPYTFKDFVLHPRSHKSRVKGYLRLKMTYLPKTSGSEDDNAEQAEELEPGWVVLDQPDAACHLQQQQEPSPLPPGWEERQDILGRTYYVNHESRRTQWKRPTPQDNLTDAENGNIQLQAQRAFTTRRQISEETESVDNRESSENWEIIREDEATMYSNQAFPSPPPSSNLDVPTHLAEELNARLTIFGNSAVSQPASSSNHSSRRGSLQAYTFEEQPTLPVLLPTSSGLPPGWEEKQDERGRSYYVDHNSRTTTWTKPTVQATVETSQLTSSQSSAGPQSQASTSDSGQQVTQPSEIEQGFLPKGWEVRHAPNGRPFFIDHNTKTTTWEDPRLKIPAHLRGKTSLDTSNDLGPLPPGWEERTHTDGRIFYINHNIKRTQWEDPRLENVAITGPAVPYSRDYKRKYEFFRRKLKKQNDIPNKFEMKLRRATVLEDSYRRIMGVKRADFLKARLWIEFDGEKGLDYGGVAREWFFLISKEMFNPYYGLFEYSATDNYTLQINPNSGLCNEDHLSYFKFIGRVAGMAVYHGKLLDGFFIRPFYKMMLHKPITLHDMESVDSEYYNSLRWILENDPTELDLRFIIDEELFGQTHQHELKNGGSEIVVTNKNKKEYIYLVIQWRFVNRIQKQMAAFKEGFFELIPQDLIKIFDENELELLMCGLGDVDVNDWREHTKYKNGYSANHQVIQWFWKAVLMMDSEKRIRLLQFVTGTSRVPMNGFAELYGSNGPQSFTVEQWGTPEKLPRAHTCFNRLDLPPYESFEELWDKLQMAIENTQGFDGVD [NEDD4] | -0.163 | -0.41 | 0.545 | -0.127 | 49.3 | 49.7
MAQTLQMEIPNFGNSILECLNEQRLQGLYCDVSVVVKGHAFKAHRAVLAASSSYFRDLFNNSRSAVVELPAAVQPQSFQQILSFCYTGRLSMNVGDQFLLMYTAGFLQIQEIMEKGTEFFLKVSSPSCDSQGLHAEEAPSSEPQSPVAQTSGWPACSTPLPLVSRVKTEQQESDSVQCMPVAKRLWDSGQKEAGGGGNGSRKMAKFSTPDLAANRPHQPPPPQQAPVVAAAQPAVAAGAGQPAGGVAAAGGVVSGPSTSERTSPGTSSAYTSDSPGSYHNEEDEEEDGGEEGMDEQYRQICNMYTMYSMMNVGQTAEKVEALPEQVAPESRNRIRVRQDLASLPAELINQIGNRCHPKLYDEGDPSEKLELVTGTNVYITRAQLMNCHVSAGTRHKVLLRRLLASFFDRNTLANSCGTGIRSSTNDPRRKPLDSRVLHAVKYYCQNFAPNFKESEMNAIAADMCTNARRVVRKSWMPKVKVLKAEDDAYTTFISETGKIEPDMMGVEHGFETASHEGEAGPSAEALQ [NACC1] | -0.176 | 3.55 | 6.42 | 0.142 | 47.6 | 49.4
MAQTVQNVTLSLTLPITCHICLGKVRQPVICINNHVFCSICIDLWLKNNSQCPACRVPITPENPCKEIIGGTSESEPMLSHTVRKHLRKTRLELLHKEYEDEIDCLQKEVEELKSKNLSLESQIKTILDPLTLVQGNQNEDKHLVTDNPSKINPETVAEWKKKLRTANEIYEKVKDDVDKLKEANKKLKLENGGLVRENLRLKAEVDNRSPQKFGRFAVAALQSKVEQYERETNRLKKALERSDKYIEELESQVAQLKNSSEEKEAMNSICQTALSADGKGSKGSEEDVVSKNQGDSARKQPGSSTSSSSHLAKPSSSRLCDTSSARQESTSKADLNCSKNKDLYQEQVEVMLDVTDTSMDTYLEREWGNKPSDCVPYKDEELYDLPAPCTPLSLSCLQLSTPENRESSVVQAGGSKKHSNHLRKLVFDDFCDSSNVSNKDSSEDDISRSENEKKSECFSSPKTGFWDCCSTSYAQNLDFESSEGNTIANSVGEISSKLSEKSGLCLSKRLNSIRSFEMNRTRTSSEASMDAAYLDKISELDSMMSESDNSKSPCNNGFKSLDLDGLSKSSQGSEFLEEPDKLEEKTELNLSKGSLTNDQLENGSEWKPTSFFLLSPSDQEMNEDFSLHSSSCPVTNEIKPPSCLFQTEFSQGILLSSSHRLFEDQRFGSSLFKMSSEMHSLHNHLQSPWSTSFVPEKRNKNVNQSTKRKIQSSLSSASPSKATKS [RNF219] | -0.0524 | 0.213 | 2.43 | -0.0524 | 46.5 | 49.3
MAQYKGAASEAGRAMHLMKKREKQREQMEQMKQRIAEENIMKSNIDKKFSAHYDAVEAELKSSTVGLVTLNDMKAKQEALVKEREKQLAKKEQSKELQMKLEKLREKERKKEAKRKISSLSFTLEEEEEGGEEEEEAAMYEEEMEREEITTKKRKLGKNPDVDTSFLPDRDREEEENRLREELRQEWEAKQEKIKSEEIEITFSYWDGSGHRRTVKMRKGNTMQQFLQKALEILRKDFSELRSAGVEQLMYIKEDLIIPHHHSFYDFIVTKARGKSGPLFNFDVHDDVRLLSDATVEKDESHAGKVVLRSWYEKNKHIFPASRWEPYDPEKKWDKYTIR [FAM50A] | -0.0697 | 1.03 | 2.04 | 0.0519 | 48.4 | 50.3
MARCERLRGAALRDVLGRAQGVLFDCDGVLWNGERAVPGAPELLERLARAGKAALFVSNNSRRARPELALRFARLGFGGLRAEQLFSSALCAARLLRQRLPGPPDAPGAVFVLGGEGLRAELRAAGLRLAGDPSAGDGAAPRVRAVLVGYDEHFSFAKLREACAHLRDPECLLVATDRDPWHPLSDGSRTPGTGSLAAAVETASGRQALVVGKPSPYMFECITENFSIDPARTLMVGDRLETDILFGHRCGMTTVLTLTGVSRLEEAQAYLAAGQHDLVPHYYVESIADLTEGLED [PDXP] | -0.126 | -2.14 | -1.83 | 0.126 | 56.7 | 57.5
MARGERRRRAVPAEGVRTAERAARGGPGRRDGRGGGPRSTAGGVALAVVVLSLALGMSGRWVLAWYRARRAVTLHSAPPVLPADSSSPAVAPDLFWGTYRPHVYFGMKTRSPKPLLTGLMWAQQGTTPGTPKLRHTCEQGDGVGPYGWEFHDGLSFGRQHIQDGALRLTTEFVKRPGGQHGGDWSWRVTVEPQDSGTSALPLVSLFFYVVTDGKEVLLPEVGAKGQLKFISGHTSELGDFRFTLLPPTSPGDTAPKYGSYNVFWTSNPGLPLLTEMVKSRLNSWFQHRPPGAPPERYLGLPGSLKWEDRGPSGQGQGQFLIQQVTLKIPISIEFVFESGSAQAGGNQALPRLAGSLLTQALESHAEGFRERFEKTFQLKEKGLSSGEQVLGQAALSGLLGGIGYFYGQGLVLPDIGVEGSEQKVDPALFPPVPLFTAVPSRSFFPRGFLWDEGFHQLVVQRWDPSLTREALGHWLGLLNADGWIGREQILGDEARARVPPEFLVQRAVHANPPTLLLPVAHMLEVGDPDDLAFLRKALPRLHAWFSWLHQSQAGPLPLSYRWRGRDPALPTLLNPKTLPSGLDDYPRASHPSVTERHLDLRCWVALGARVLTRLAEHLGEAEVAAELGPLAASLEAAESLDELHWAPELGVFADFGNHTKAVQLKPRPPQGLVRVVGRPQPQLQYVDALGYVSLFPLLLRLLDPTSSRLGPLLDILADSRHLWSPFGLRSLAASSSFYGQRNSEHDPPYWRGAVWLNVNYLALGALHHYGHLEGPHQARAAKLHGELRANVVGNVWRQYQATGFLWEQYSDRDGRGMGCRPFHGWTSLVLLAMAEDY [MOGS] | -0.0215 | 3.25 | 3.97 | -0.0875 | 52.9 | 52.8
